In patent US20230287118A1 (published 2023):

Assays:
Experiment in all cases: cell-based or functional assay
human CD20 [1] = molecular target: T1, human CD20 (human, UniProt P11836 1-297)
T1 sequence (looked up): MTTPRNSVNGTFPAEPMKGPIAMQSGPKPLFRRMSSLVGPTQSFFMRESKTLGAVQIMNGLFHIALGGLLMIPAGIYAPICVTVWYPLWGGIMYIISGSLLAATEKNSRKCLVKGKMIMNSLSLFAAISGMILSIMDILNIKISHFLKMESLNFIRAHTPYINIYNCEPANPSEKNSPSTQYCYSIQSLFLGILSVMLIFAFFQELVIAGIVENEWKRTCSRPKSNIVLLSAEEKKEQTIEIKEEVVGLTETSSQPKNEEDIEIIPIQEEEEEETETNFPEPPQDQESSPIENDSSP

human CD20 [2] = molecular target: T1, human CD20; remark: listed apart in the source
human CD20 [3] = molecular target: T1, human CD20; remark: listed apart in the source
human CD20 [4] = molecular target: T1, human CD20; remark: listed apart in the source
human CD3 [5] = molecular target: T2, human CD3 (human, UniProt P07766 23-207)
human CD3 [6] = molecular target: T2, human CD3; remark: listed apart in the source
human Her3 = human Her3 (human, UniProt P21860 20-1342)

B1: anti-CD20/anti-CD3 TCB molecule H: "1+1 CrossMab" with charge modifications (VH/VL exchange in CD3 binder, charge modification in CD20 binder) (bispecific antibody, human IgG1, kappa, N297G)
heavy 1: not shown
heavy 2: QAVVTQEPSLTVSPGGTVTLTCGSSTGAVTTSNYANWVQEKPGQAFRGLIGGTNKRAPGTPARFSGSLLGGKAALTLSGAQPEDEAEYYCALWYSNLWVFGGGTKLTVLSSASTKGPSVFPLAPSSKSTSGGTAALGCLVKDYFPEPVTVSWNSGALTSGVHTFPAVLQSSGLYSLSSVVTVPSSSLGTQTYICNVNHKPSNTKVDKKVEPKSCDKTHTCPPCPAPELLGGPSVFLFPPKPKDTLMISRTPEVTCVVVDVSHEDPEVKFNWYVDGVEVHNAKTKPREEQYGSTYRVVSVLTVLHQDWLNGKEYKCKVSNKALPAPIEKTISKAKGQPREPQVYTLPPCRDELTKNQVSLWCLVKGFYPSDIAVEWESNGQPENNYKTTPPVLDSDGSFFLYSKLTVDKSRWQQGNVFSCSVMHEALHNHYTQKSLSLSP
light 1: DIVMTQTPLSLPVTPGEPASISCRSSKSLLHSNGITYLYWYLQKPGQSPQLLIYQMSNLVSGVPDRFSGSGSGTDFTLKISRVEAEDVGVYYCAQNLELPYTFGGGTKVEIKRTVAAPSVFIFPPSDRKLKSGTASVVCLLNNFYPREAKVQWKVDNALQSGNSQESVTEQDSKDSTYSLSSTLTLSKADYEKHKVYACEVTHQGLSSPVTKSFNRGEC
light 2: EVQLLESGGGLVQPGGSLRLSCAASGFTFSTYAMNWVRQAPGKGLEWVSRIRSKYNNYATYYADSVKGRFTISRDDSKNTLYLQMNSLRAEDTAVYYCVRHGNFGNSYVSWFAYWGQGTLVTVSSASVAAPSVFIFPPSDEQLKSGTASVVCLLNNFYPREAKVQWKVDNALQSGNSQESVTEQDSKDSTYSLSSTLTLSKADYEKHKVYACEVTHQGLSSPVTKSFNRGEC
B1 was tested, and the “EC50 of tumor cell lysis (LDH release), Z138 cells + human PBMCs, 21-24 h, panel A” value (human CD20 [1]) was 17.5 pM, the “EC50 24 h of CD4 T cell activation, Z138 cells (average of 3 donors)” value (human CD20 [2]) was 122 pM and the “EC50 24 h of CD8 T cell activation, Z138 cells (average of 3 donors)” value (human CD20 [2]) was 175 pM. For the same binder, the “EC50 24 h of tumor lysis, Z138 cells (average of 3 donors)” value (human CD20 [2]) was 751 pM, the “EC50 24 h of tumor lysis, Ocly-18 cells” value (human CD20 [3]) was 250 pM and the “EC50 24 h of tumor lysis, SU-DHL-5 cells” value (human CD20 [3]) was 69.7 pM. The “EC50 24 h of tumor lysis, SU-DHL-8 cells” value (human CD20 [3]) was 219 pM, the “EC50 24 h of tumor lysis, Toledo cells” value (human CD20 [3]) was 120 pM and the “EC50 24 h of tumor lysis, U2932 cells” value (human CD20 [3]) was 72.7 pM. The “EC50 24 h of B cell depletion in normal human whole blood” value (human CD20 [4]) was 3.75 nM and the “EC50 of CD3 activation, Jurkat-NFAT reporter cells co-cultured with Z138 cells (luminescence, 6 h)” value (human CD3 [5]) was 1000 pM.

B2: anti-CD20/anti-CD3 TCB molecule A: "2+1 IgG CrossFab, inverted" without charge modifications (CH1/CL exchange in CD3 binder) (bispecific antibody)
chain 1: not shown
chain 2: QVQLVQSGAEVKKPGSSVKVSCKASGYAFSYSWINWVRQAPGQGLEWMGRIFPGDGDTDYNGKFKGRVTITADKSTSTAYMELSSLRSEDTAVYYCARNVFDGYWLVYWGQGTLVTVSSASTKGPSVFPLAPSSKSTSGGTAALGCLVKDYFPEPVTVSWNSGALTSGVHTFPAVLQSSGLYSLSSVVTVPSSSLGTQTYICNVNHKPSNTKVDKKVEPKSCDKTHTCPPCPAPEAAGGPSVFLFPPKPKDTLMISRTPEVTCVVVDVSHEDPEVKFNWYVDGVEVHNAKTKPREEQYNSTYRVVSVLTVLHQDWLNGKEYKCKVSNKALGAPIEKTISKAKGQPREPQVCTLPPSRDELTKNQVSLSCAVKGFYPSDIAVEWESNGQPENNYKTTPPVLDSDGSFFLVSKLTVDKSRWQQGNVFSCSVMHEALHNHYTQKSLSLSP
chain 3: QAVVTQEPSLTVSPGGTVTLTCGSSTGAVTTSNYANWVQEKPGQAFRGLIGGTNKRAPGTPARFSGSLLGGKAALTLSGAQPEDEAEYYCALWYSNLWVFGGGTKLTVLSSASTKGPSVFPLAPSSKSTSGGTAALGCLVKDYFPEPVTVSWNSGALTSGVHTFPAVLQSSGLYSLSSVVTVPSSSLGTQTYICNVNHKPSNTKVDKKVEPKSC
chain 4: DIVMTQTPLSLPVTPGEPASISCRSSKSLLHSNGITYLYWYLQKPGQSPQLLIYQMSNLVSGVPDRFSGSGSGTDFTLKISRVEAEDVGVYYCAQNLELPYTFGGGTKVEIKRTVAAPSVFIFPPSDEQLKSGTASVVCLLNNFYPREAKVQWKVDNALQSGNSQESVTEQDSKDSTYSLSSTLTLSKADYEKHKVYACEVTHQGLSSPVTKSFNRGEC
For B2, the “EC50 of tumor cell lysis (LDH release), Z138 cells + human PBMCs, 21-24 h, panel A” value (human CD20 [1]) was 0.76 pM.

B3: anti-CD20/anti-CD3 TCB molecule C: "2+1 IgG CrossFab" with charge modifications (VH/VL exchange in CD3 binder, charge modification in CD20 binders) (bispecific antibody)
heavy 1: not shown
heavy 2: QVQLVQSGAEVKKPGSSVKVSCKASGYAFSYSWINWVRQAPGQGLEWMGRIFPGDGDTDYNGKFKGRVTITADKSTSTAYMELSSLRSEDTAVYYCARNVFDGYWLVYWGQGTLVTVSSASTKGPSVFPLAPSSKSTSGGTAALGCLVEDYFPEPVTVSWNSGALTSGVHTFPAVLQSSGLYSLSSVVTVPSSSLGTQTYICNVNHKPSNTKVDEKVEPKSCDKTHTCPPCPAPEAAGGPSVFLFPPKPKDTLMISRTPEVTCVVVDVSHEDPEVKFNWYVDGVEVHNAKTKPREEQYNSTYRVVSVLTVLHQDWLNGKEYKCKVSNKALGAPIEKTISKAKGQPREPQVCTLPPSRDELTKNQVSLSCAVKGFYPSDIAVEWESNGQPENNYKTTPPVLDSDGSFFLVSKLTVDKSRWQQGNVFSCSVMHEALHNHYTQKSLSLSP
light 1: DIVMTQTPLSLPVTPGEPASISCRSSKSLLHSNGITYLYWYLQKPGQSPQLLIYQMSNLVSGVPDRFSGSGSGTDFTLKISRVEAEDVGVYYCAQNLELPYTFGGGTKVEIKRTVAAPSVFIFPPSDRKLKSGTASVVCLLNNFYPREAKVQWKVDNALQSGNSQESVTEQDSKDSTYSLSSTLTLSKADYEKHKVYACEVTHQGLSSPVTKSFNRGEC
light 2: EVQLLESGGGLVQPGGSLRLSCAASGFTFSTYAMNWVRQAPGKGLEWVSRIRSKYNNYATYYADSVKGRFTISRDDSKNTLYLQMNSLRAEDTAVYYCVRHGNFGNSYVSWFAYWGQGTLVTVSSASVAAPSVFIFPPSDEQLKSGTASVVCLLNNFYPREAKVQWKVDNALQSGNSQESVTEQDSKDSTYSLSSTLTLSKADYEKHKVYACEVTHQGLSSPVTKSFNRGEC
B3 was tested, and the “EC50 of tumor cell lysis (LDH release), Z138 cells + human PBMCs, 21-24 h, panel B” value (human CD20 [1]) was 43.3 pM.

B4: anti-Her2/anti-CD3 "2+1 IgG CrossFab, inverted" molecule with charge modifications (Her2 TCB) (bispecific antibody)
chain 1: not shown
chain 2: not shown
chain 3: not shown
light: EVQLLESGGGLVQPGGSLRLSCAASGFTFSTYAMNWVRQAPGKGLEWVSRIRSKYNNYATYYADSVKGRFTISRDDSKNTLYLQMNSLRAEDTAVYYCVRHGNFGNSYVSWFAYWGQGTLVTVSSASVAAPSVFIFPPSDEQLKSGTASVVCLLNNFYPREAKVQWKVDNALQSGNSQESVTEQDSKDSTYSLSSTLTLSKADYEKHKVYACEVTHQGLSSPVTKSFNRGEC
B4 was tested, and the “EC50 of activation of Jurkat-NFAT reporter cells co-cultured with KPL4 cells (luminescence, 5 h)” value (human CD3 [6]) was 34.4 pM.

B5: anti-Her3/anti-CD3 "2+1 IgG CrossFab" molecule with charge modifications (Her3 TCB) (bispecific antibody)
chain 1: not shown
chain 2: QVQLVQSGAEVKKPGASVKVSCKASGYTFRSSYISWVRQAPGQGLEWMGWIYAGTGSPSYNQKLQGRVTMTTDTSTSTAYMELRSLRSDDTAVYYCARHRDYYSNSLTYWGQGTLVTVSSASTKGPSVFPLAPSSKSTSGGTAALGCLVEDYFPEPVTVSWNSGALTSGVHTFPAVLQSSGLYSLSSVVTVPSSSLGTQTYICNVNHKPSNTKVDEKVEPKSCDKTHTCPPCPAPEAAGGPSVFLFPPKPKDTLMISRTPEVTCVVVDVSHEDPEVKFNWYVDGVEVHNAKTKPREEQYNSTYRVVSVLTVLHQDWLNGKEYKCKVSNKALGAPIEKTISKAKGQPREPQVCTLPPSRDELTKNQVSLSCAVKGFYPSDIAVEWESNGQPENNYKTTPPVLDSDGSFFLVSKLTVDKSRWQQGNVFSCSVMHEALHNHYTQKSLSLSP
chain 3: not shown
light: EVQLLESGGGLVQPGGSLRLSCAASGFTFSTYAMNWVRQAPGKGLEWVSRIRSKYNNYATYYADSVKGRFTISRDDSKNTLYLQMNSLRAEDTAVYYCVRHGNFGNSYVSWFAYWGQGTLVTVSSASVAAPSVFIFPPSDEQLKSGTASVVCLLNNFYPREAKVQWKVDNALQSGNSQESVTEQDSKDSTYSLSSTLTLSKADYEKHKVYACEVTHQGLSSPVTKSFNRGEC
In the case of B5, the “EC50 of activation of Jurkat-NFAT reporter cells co-cultured with KPL4 cells (luminescence, 5 h)” value (human CD3 [6]) is reported as 22 pM, the “EC50 of Caspase 3/7 activity (luminescence) in KPL-4-Caspase-3/7 GloSensor target cells + PBMCs, 6.5 h” value (human Her3) is reported as 0.7 pM and the “EC50 of tumor cell lysis (LDH release), KPL4 cells + human PBMCs, 24 h” value (human Her3) is reported as 2.54 pM. The “EC50 of tumor cell lysis (LDH release), KPL4 cells + human PBMCs, 48 h” value (human Her3) was 0.53 pM.
